T1: IL13Ra2抗原 (in solution, Biacore) (UniProt Q14627 27-343, limits assumed)
T1 construct: also called IL13Rα2; 白介素13受体α2
T1 sequence (looked up): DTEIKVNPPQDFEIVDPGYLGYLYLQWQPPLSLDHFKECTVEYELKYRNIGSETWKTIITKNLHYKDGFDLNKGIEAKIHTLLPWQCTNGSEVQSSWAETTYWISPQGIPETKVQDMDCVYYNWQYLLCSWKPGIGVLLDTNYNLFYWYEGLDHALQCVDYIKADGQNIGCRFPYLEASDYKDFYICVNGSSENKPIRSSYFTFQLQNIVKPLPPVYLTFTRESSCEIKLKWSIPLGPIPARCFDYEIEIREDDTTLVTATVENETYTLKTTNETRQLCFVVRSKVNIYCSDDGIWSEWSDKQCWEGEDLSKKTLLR


Target: T1, IL13Ra2抗原 (in solution, Biacore)
Test: SPR (Biacore), antibody fixed on chip, IL13Ra2 in solution

| Binder | Kd | koff | kon |
| --- | --- | --- | --- |
| 抗IL13Ra2纳米抗体VHH-1 (VHH-mIgG2a Fc) (Fc fusion, not shown: mouse IgG2a Fc tag from vector C-4pCP.Stuffer-mCg2a-FC) QVQLVESGGGLVQPGGSLRLSCAASGFTLDYYAIAWFRQAPGKRREGVSCISSSEGSTNYADSVKGRFTISRDNAKNTVYLQMNSLKPEDTAVYYCAADSTGRCWARPLYEYDYRGQGTQVTVSS | 16.1 nM | 0.00156 s⁻¹ | 55300 M⁻¹ s⁻¹ |
| 抗IL13Ra2纳米抗体VHH-13 (VHH-mIgG2a Fc) (Fc fusion, not shown: mouse IgG2a Fc tag from vector C-4pCP.Stuffer-mCg2a-FC) QVQLVESGGGSVQAGGSLRLSCTSSRFTLDYYAIAWFRQAPGKRREGVSCISSSEGSTNYADSVKGRFTISRDNAKNTVYLQMNSLKPEDTAVYYCAADSTGRCWARPLYEYDYRGQGTQVTVSS | 16.6 nM | 0.00433 s⁻¹ | 68300 M⁻¹ s⁻¹ |
| 抗IL13Ra2纳米抗体VHH-7 (VHH-mIgG2a Fc) (Fc fusion, not shown: mouse IgG2a Fc tag from vector C-4pCP.Stuffer-mCg2a-FC) QVQLVESGGGLAHPGGRLRVTCTASGANLKNYAVGWFRQRPGKQREEVACLRVRYANTNKAPSVRERVHVFREENNNLVYMLMSDLTPEDTGIYYCAARPQQPSADCSLLANDYDNWGQGIQVTVSE | 32.4 nM | 0.00066 s⁻¹ | 65400 M⁻¹ s⁻¹ |

— patent CN114409782A (HUAI SHANGHAI BIOMEDICINE LTD COMPANY, dated 2022)
